Results from patent US20210087522.

Legend:
[1] = target: AprACP, ACP of the apratoxin (PK/NRP) gene cluster in Lyngbya sp.
[2] = target: T1, FNsACP, homolog of ArCPNp from Fischerella
T1 chain: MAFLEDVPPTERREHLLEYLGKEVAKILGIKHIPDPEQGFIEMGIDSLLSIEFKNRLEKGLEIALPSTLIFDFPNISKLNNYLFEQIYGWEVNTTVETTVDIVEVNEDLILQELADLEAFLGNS

[3] = target: T2, MACP, CP of an uncharacterized NRP/PK gene cluster from M. aeruginosa NIES843
T2 chain: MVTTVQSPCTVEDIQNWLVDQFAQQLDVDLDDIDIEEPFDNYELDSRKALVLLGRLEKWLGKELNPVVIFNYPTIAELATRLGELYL

[4] = target: T3, SsPCP, PCP of a thaxtomin cluster from Streptomyces scabiei 87.22
T3 chain: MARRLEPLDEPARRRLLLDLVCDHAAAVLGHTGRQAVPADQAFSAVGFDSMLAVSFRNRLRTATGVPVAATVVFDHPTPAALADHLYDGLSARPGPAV

[5] = target: ScACP, ACP of a putative concanamycin gene cluster from Streptomyces coelicolor A(3)2
[6] = target: T4, APACP, ACP of the glycolipid PKS in Anabaena
T4 chain: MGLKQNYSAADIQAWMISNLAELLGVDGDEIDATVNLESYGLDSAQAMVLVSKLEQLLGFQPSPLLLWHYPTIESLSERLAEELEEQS

[7] = target: T5, FisPCP, PCP of the shinorine gene cluster from Fischerella
T5 chain: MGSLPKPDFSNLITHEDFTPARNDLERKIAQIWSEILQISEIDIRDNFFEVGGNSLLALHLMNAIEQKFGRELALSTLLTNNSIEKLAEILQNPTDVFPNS

[8] = target: T6, SFACP, ACP of the FAS from Synechocystis
T6 chain: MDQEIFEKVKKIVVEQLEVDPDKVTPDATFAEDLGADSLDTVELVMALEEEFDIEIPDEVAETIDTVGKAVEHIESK

[9] = target: T7, AFACP, ACP of the FAS from Anabaena
T7 chain: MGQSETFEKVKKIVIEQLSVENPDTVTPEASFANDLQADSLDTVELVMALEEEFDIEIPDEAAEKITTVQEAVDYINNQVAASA

[10] = target: T8, APNPCP, CP of an uncharacterized NRP/PK gene cluster from Anabaena
T8 chain: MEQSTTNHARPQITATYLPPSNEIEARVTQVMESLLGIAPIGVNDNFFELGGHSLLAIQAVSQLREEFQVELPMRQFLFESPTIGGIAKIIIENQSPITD

[11] = target: T9, FNPCP, CP of an uncharacterized NRP gene cluster from Fischerella
T9 chain: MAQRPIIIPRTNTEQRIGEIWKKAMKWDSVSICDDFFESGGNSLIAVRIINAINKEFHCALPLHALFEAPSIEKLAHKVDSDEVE

B1: AvPPT, Sfp-like phosphopantetheinyl transferase (PPTase) from Anabaena variabilis ATCC29413 (protein)
chain: MLQHTWLPKPPNLTLLSDEVHLWRIPLDRPESQLQHLAATLSSDELARANRFYFPEHRQRFTAGRGILRSILGLYLGVEPKQVKFEYESRGKPVLGDRFADSGLLFNLSHSQNLGLCAVNYTRQIGIDLEYLRPTSDLESLAKRFFLPREYELLRSLPDEQKQKIFFRYWTCKEAYLKATGDGIAKLEEIEIALTPTEPAKLQTTPAWSLLELVPDDNCVAAVAVAGFGWQPKFWQY
For B1, the “phosphopantetheinylation of CP (apo to holo), LC-MS” value (“phosphopantetheinylation of CP” below) [1] was “APPT, AvPPT, MPPT and Sfp functionalized all substrates”, the “phosphopantetheinylation of CP” value [2] was “APPT, AvPPT, MPPT and Sfp functionalized all substrates” and the “phosphopantetheinylation of CP” value [3] was “APPT, AvPPT, MPPT and Sfp functionalized all substrates”. The “phosphopantetheinylation of CP” value [4] was “APPT, AvPPT, MPPT and Sfp functionalized all substrates”, the “phosphopantetheinylation of CP” value [5] was “APPT, AvPPT, MPPT and Sfp functionalized all substrates” and the “phosphopantetheinylation of CP” value [6] was “APPT, AvPPT, MPPT and Sfp functionalized all substrates”. For the same protein, the “phosphopantetheinylation of CP” value [7] was “APPT, AvPPT, MPPT and Sfp functionalized all substrates”, the “phosphopantetheinylation of CP” value [8] was “APPT, AvPPT, MPPT and Sfp functionalized all substrates” and the “phosphopantetheinylation of CP” value [9] was “APPT, AvPPT, MPPT and Sfp functionalized all substrates”. The “phosphopantetheinylation of CP” value [10] was “APPT, AvPPT, MPPT and Sfp functionalized all substrates” and the “phosphopantetheinylation of CP” value [11] was “APPT, AvPPT, MPPT and Sfp functionalized all substrates”.
